Columns and labels:
[1] = target: T1, SGR_2426r (SGR_2426 protein) (Streptomyces griseus, UniProt B1W1N0, E318G); assay: X-ray crystal structure, soaked crystal; type: binding; details: 500 mM Sop2 soak, about 2 h; subsites -1 and +1; mutant printed E316G once
T1 construct: full length (no signal peptide), C-terminal His6 tag kept, pET30a, E. coli BL21(DE3); monomer by PISA

[2] = substrate: C[C@H]1O[C@@H](Oc2ccc([N+](=O)[O-])cc2)[C@H](O)[C@@H](O)[C@H]1O; assay: p-nitrophenol release, biphasic fit; type: biochemical, Streptomyces griseus; details: pH 6.5, first (stronger) site of biphasic equation
Text: p-nitrophenol release, biphasic fit on SGR_2426r (SGR_2426 protein)

[3] = substrate: O=[N+]([O-])c1ccc(O[C@@H]2O[C@H](CO)[C@H](O)[C@H](O)[C@H]2O)cc1; assay: purified protein; details: pH 6.5
[4] = substrate: O=[N+]([O-])c1ccc(O[C@@H]2O[C@H](CO)[C@@H](O)[C@H](O)[C@H]2O)cc1; assay: purified protein; details: pH 6.5

T1 sequence (B1W1N0 entry or part of it E318G): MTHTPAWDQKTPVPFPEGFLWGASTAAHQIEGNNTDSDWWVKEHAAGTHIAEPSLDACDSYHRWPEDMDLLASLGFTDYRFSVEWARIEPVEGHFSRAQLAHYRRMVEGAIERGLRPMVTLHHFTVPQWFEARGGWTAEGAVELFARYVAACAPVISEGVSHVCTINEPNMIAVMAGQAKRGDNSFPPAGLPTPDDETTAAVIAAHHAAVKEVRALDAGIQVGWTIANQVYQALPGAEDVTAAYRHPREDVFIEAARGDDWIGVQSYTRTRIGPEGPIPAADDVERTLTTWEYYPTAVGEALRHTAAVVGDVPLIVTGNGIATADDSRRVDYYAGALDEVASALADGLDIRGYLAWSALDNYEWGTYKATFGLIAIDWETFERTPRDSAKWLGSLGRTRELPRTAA

Molecule | X-ray crystal structure, soaked crystal [1] | Km [2] [µM] | Vmax [2] [µmol/min/mg] | Vmax/Km [2] [µL/min/mg] | Km [3] [µM] | Vmax [3] [µmol/min/mg] | Vmax/Km [3] [µL/min/mg] | Km [4] [µM] | Vmax [4] [µmol/min/mg] | Vmax/Km [4] [µL/min/mg]
OC[C@H]1O[C@@H](O[C@H]2C(O)O[C@H](CO)[C@@H](O)[C@@H]2O)[C@H](O)[C@@H](O)[C@@H]1O (stereo partly shown) [Sop2, sophorose] | crystals of the E318G mutant prepared without Sop2 were soaked | – | – | – | – | – | – | – | – | –
SGR_2426r (SGR_2426 protein) (Streptomyces griseus subsp. griseus NBRC 13350) (protein, full length (no signal peptide), C-terminal His6 tag kept, pET30a, E. coli BL21(DE3); monomer by PISA) MTHTPAWDQKTPVPFPEGFLWGASTAAHQIEGNNTDSDWWVKEHAAGTHIAEPSLDACDSYHRWPEDMDLLASLGFTDYRFSVEWARIEPVEGHFSRAQLAHYRRMVEGAIERGLRPMVTLHHFTVPQWFEARGGWTAEGAVELFARYVAACAPVISEGVSHVCTINEPNMIAVMAGQAKRGDNSFPPAGLPTPDDETTAAVIAAHHAAVKEVRALDAGIQVGWTIANQVYQALPGAEDVTAAYRHPREDVFIEAARGDDWIGVQSYTRTRIGPEGPIPAADDVERTLTTWEYYPTAVGEALRHTAAVVGDVPLIVTENGIATADDSRRVDYYAGALDEVASALADGLDIRGYLAWSALDNYEWGTYKATFGLIAIDWETFERTPRDSAKWLGSLGRTRELPRTAA | – | 160 ± 100 | 4.6 | 29000 | 5800 ± 300 | 13 | 2300 | 1000 ± 100 | 28 | 28000

— paper PMC12369401, “A β‐1,2‐glucan‐associated glycoside hydrolase family 1 β‐glucosidase from Streptomyces griseus” (Protein Science : A Publication of the Protein Society, 2025)
